First the molecules themselves.
B1: anti-CCR8 mAb 1-3 (antibody, V domains shown)
VH: KVQLQQSGPELVKPGASVKISCKTSGYTFTEYTIHWVQQIHGKSPEWIGGINPNGDTRYDQKFKGKATLTIDKSSSTAYMELRSLTSEDSAVYYCARVARFYGISPYAMDYWGQGTSVTVSS
VL: DVVMTQTPLSLPVSLGDQASISCRCTQSLLHSNGDTYLHWYLQKPGQSPNLLIYKVSNRFSGVPDRFSGSGSGTDFTLKINRVEAEDLGVYFCSQSTHVPYTFGGGTNLEIK
notes: Murine hybridoma mAb
B2: anti-CCR8 mAb 1-6 (antibody, V domains shown)
VH: EVQLQQSGPELLKPGTSVKISCTTSGYTFSDYTLHWVKQSHGKSLEWIGGITPKNGDTRYDPRFKDKATLTIDKSSSAAYMELRSLTSEDSAVYYCARVARFYGVSPYAMDYWGQGASVTVSS
VL: B1 VL with N50K, K79E, N81T, S96T, N108K
notes: Murine hybridoma mAb
B3: anti-CCR8 mAb 1-5 (antibody, V domains shown)
VH: QVQLKESGPGLVAPSQSLSITCTVSGLSMNDYVVTWIRQPPGKGLEWLGVIWGGGNTYYNSDLKSRLSITKDNSKSQVFFKMSSLQTDDTAVYYCARRHRDYALDYWGQGISVTVSS
VL: B1 VL with C25S, T26S, L30V, H31Y, D35N, N50K, N81S, H98Y, Y101P, N108K
notes: Murine hybridoma mAb
B4: anti-CCR8 mAb 1-18 (antibody, V domains shown)
VH: QVQVQQSGAELARPGASVKMSCKASGYTFTTYAMHWVKQRPGQGLEWIGHINPSSGYSNYNQKFKDKATLTADKSSSTAYMQLSSLTSEDSAVYYCARSEVRRGYFDVWGAGTTVTVSS
VL: DIQMTQTTSSLSASLGDRVTISCRTSQDIRNYLNWYQQKPDGTVKLLISYTSRLHSGVPSRFSGSGSGTDYSLTISNLEQEDFATYFCQQGNTLPPTFGGGTRVEIK
notes: Murine hybridoma mAb

Where a chain is given by its changes, count along the chain named. “And” between values parts separate entries of the source, which are not always exact repeats. Equal values may be shown once.

T3 sequence (peptide, as listed by the source): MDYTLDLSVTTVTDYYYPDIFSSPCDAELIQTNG
T2 sequence (peptide, as listed by the source): as above
T5 sequence (peptide, as listed by the source): as above
T7 sequence (peptide, as listed by the source): as above

One assay addresses T1, human CCR8 (human, UniProt P51685 1-355). Put plainly: cell-based or functional assay.
For B1, the “IC50 of CCL1-induced hCCR8 Gi2 signaling (BRET, HEK-293)” value was 0.069 µg/mL and 0.462 nM.
Same read-out and setting: then B2, with 0.049 µg/mL and 0.328 nM.
With B3, the “IC50 of CCL1-induced hCCR8 Gi2 signaling (BRET, HEK-293)” value was 0.143 µg/mL and 0.954 nM.
The same measure, in the same setting: then B4, with 0.004 µg/mL and 0.029 nM.

The next assay deals with T1, human CCR8. Briefly: cell-based or functional assay. This is another data set of the same source.
For B1, the “residual hCCL1 (100 nM) Gi2 response, protocol #2, mAb 0.08 µg/mL” value (from here on “residual hCCL1 … mAb 0.08 µg/mL”) came to 101%; the “residual hCCL1 (100 nM) Gi2 response, protocol #2, mAb 0.4 µg/mL” value (“residual hCCL1 … mAb 0.4 µg/mL” for short) is 93%; the “residual hCCL1 (100 nM) Gi2 response, protocol #2, mAb 10 µg/mL” value (“residual hCCL1 … mAb 10 µg/mL” below) turned out to be 100%; the “residual hCCL1 (100 nM) Gi2 response, protocol #3, mAb 0.05 µg/mL” value (from here on “residual hCCL1 … mAb 0.05 µg/mL”) was 92%. For the same molecule, the “residual hCCL1 (100 nM) Gi2 response, protocol #3, mAb 0.5 µg/mL” value (“residual hCCL1 … mAb 0.5 µg/mL” for short) was 81% and the “residual hCCL1 (100 nM) Gi2 response, protocol #3, mAb 5 µg/mL” value (“residual hCCL1 … mAb 5 µg/mL” below) amounted to 73%.
On to B2, for which the “residual hCCL1 … mAb 0.08 µg/mL” value came to 79%; the “residual hCCL1 … mAb 0.4 µg/mL” value was 38%; the “residual hCCL1 … mAb 10 µg/mL” value stood at 17%; the “residual hCCL1 … mAb 0.05 µg/mL” value turned out to be 102%. For the same molecule, the “residual hCCL1 … mAb 0.5 µg/mL” value turned out to be 64% and the “residual hCCL1 … mAb 5 µg/mL” value is 47%.
On to B3, for which the “residual hCCL1 … mAb 0.08 µg/mL” value worked out at 99%; the “residual hCCL1 … mAb 0.4 µg/mL” value came out at 97%; the “residual hCCL1 … mAb 10 µg/mL” value came to 97%; the “residual hCCL1 … mAb 0.05 µg/mL” value is 99%. For the same molecule, the “residual hCCL1 … mAb 0.5 µg/mL” value was determined as 84% and the “residual hCCL1 … mAb 5 µg/mL” value came to 75%.
Take B4: the “residual hCCL1 … mAb 0.08 µg/mL” value was 52%; the “residual hCCL1 … mAb 0.4 µg/mL” value turned out to be 68%; the “residual hCCL1 … mAb 10 µg/mL” value was found to be 53%; the “residual hCCL1 … mAb 0.05 µg/mL” value was determined as 76%. In addition, the “residual hCCL1 … mAb 0.5 µg/mL” value is 62% and the “residual hCCL1 … mAb 5 µg/mL” value worked out at 59%.

A further assay addresses T1, human CCR8. Put plainly: cell-based or functional assay. The source holds these as a separate data set.
In the case of B1, the “extrapolated top plateau of hCCL1 curve with 5 µg/mL mAb, protocol #3” value was 663 % of hCCL1 (100 nM).
Same read-out and setting: then B2, with 667000 % of hCCL1 (100 nM); and B3, with 133 % of hCCL1 (100 nM); and B4, with 948 % of hCCL1 (100 nM).

Another assay concerns the target T1, human CCR8. Put plainly: cell-based or functional assay. This is another data set of the same source.
B1: the “IC50 of CCL1-induced hCCR8 Gi2 signaling (BRET), pH 6.5” value (“IC50 … pH 6.5” for short) was 0.051 µg/ml and 0.34 nM; the “IC50 of CCL1-induced hCCR8 Gi2 signaling (BRET), pH 7.4” value (from here on “IC50 … pH 7.4”) was 0.059 µg/ml and 0.396 nM.
Turning to B2, the “IC50 … pH 6.5” value is 0.044 µg/ml and 0.292 nM; the “IC50 … pH 7.4” value was 0.061 µg/ml and 0.405 nM.
Consider B3, for which the “IC50 … pH 6.5” value was 0.414 µg/ml and 2.76 nM; the “IC50 … pH 7.4” value is 0.359 µg/ml and 2.4 nM.

The next assay addresses T2, pwt1 (none (unmodified peptide)).
T2 construct: also called unmodified CCR8 N-terminal peptide
Briefly: ELISA on coated peptide [cont.]. The essentials:
(§1)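 Optical density after 15 min TMB development is the read-out, correlated with antibody binding to the coated peptide. Plates carried peptide at 500 ng/ml in carbonate/bicarbonate buffer. Antibodies were incubated at 1 μg/mL and at a tenfold dilution for 90 min at room temperature, followed by washes.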
For B1, the binding result is “binds”.
B2: the binding result was “binds”.
As to B3, the binding result was “binds”.
For the molecule B4, the binding result is given as “binds”.

Another assay addresses T3, pm1 (sulfated tyrosine(s) among Y15, Y16, Y17; which ones is not told (the underlining of Table 1 is lost in the text)).
T3 construct: also called sulfated CCR8 N-terminal peptide pm1
Put plainly: ELISA on coated peptide [cont.]. In a few lines:
as §1
As to B1, the binding result was “binds”.
On the same count and under the same terms, then B2, with “binds”.
Consider B3, for which the binding result is on record as “binds”.
On the same count and under the same terms, then B4, with “binds”.

A further assay deals with T4, pm2 (sulfated tyrosine(s) among Y15, Y16, Y17; which ones is not told (the underlining of Table 1 is lost in the text)).
T4 construct: also called sulfated CCR8 N-terminal peptide pm2
T4 sequence (peptide, as listed by the source): as above
Briefly: ELISA on coated peptide [cont.]. The essentials: as §1
Turning to B1, the binding result was “binds”.
Turning to B2, the binding result was “binds”.
As for B3, the binding result was “binds”.
On to B4, for which the binding result was “binds”.

Another assay addresses T5, pm3 (Y17 sulfated; Y15 and Y16 not sulfated).
T5 construct: also called sulfated CCR8 N-terminal peptide pm3
Put plainly: ELISA on coated peptide [cont.]. In a few lines:
as §1
For B1, the binding result was “binds”.
Regarding B2, the binding result was “binds”.
For B3, the binding result was “binds”.
Turning to B4, the binding result is “binds”.

For a further assay, the target named is T6, pm4 (sulfated tyrosine(s) among Y15, Y16, Y17; which ones is not told (the underlining of Table 1 is lost in the text)).
T6 construct: also called sulfated CCR8 N-terminal peptide pm4
T6 sequence (peptide, as listed by the source): as above
Put plainly: ELISA on coated peptide [cont.]. The essentials: as §1
For the molecule B1, the binding result is on record as “binds”.
Turning to B2, the binding result is listed as “binds”.
As for B4, the binding result was “binds”.

Another assay has as its target T7, pm5 (Y15 and Y17 sulfated; Y16 not sulfated).
T7 construct: also called sulfated CCR8 N-terminal peptide pm5
Briefly: ELISA on coated peptide [cont.]. The essentials: as §1
Turning to B1, the binding result is on record as “binds”.
On the same count and under the same terms, then B2, with “binds”.
On to B3, for which the binding result is “binds”.
As for B4, the binding result was “binds”.

The target in another assay is T8, pm6 (Y16 and Y17 sulfated; Y15 not sulfated).
T8 construct: also called sulfated CCR8 N-terminal peptide pm6
T8 sequence (peptide, as listed by the source): as above
Briefly: ELISA on coated peptide [cont.]. The essentials:
as §1
On to B1, for which the binding result is recorded as “binds”.
On to B2, for which the binding result is “binds”.
For the molecule B3, the binding result was “binds”.
The same measure, in the same setting: then B4, with “binds”.

In a further assay the target is T9, pm8 (Y15, Y16 and Y17 sulfated).
T9 construct: also called sulfated CCR8 N-terminal peptide pm8
T9 sequence (peptide, as listed by the source): as above
Put plainly: ELISA on coated peptide [cont.]. The essentials: as §1
As for B1, the binding result is on record as “binds”.
B2: the binding result is “binds”.
On to B3, for which the binding result is reported as “binds”.
Regarding B4, the binding result is “binds”.

The next assay deals with T1, human CCR8. Put plainly: flow cytometry, hCCR8-transfected CHO-K1 cells. The essentials:
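Antibody incubation ran 30 min at 4° C, followed by fluorescent anti-mouse or anti-human IgG secondary for 30 min at 4° C. Isotype-matched mAbs served as nonspecific-binding controls.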
As to B1, the “% positive cells” value was 85.7% and the “MFI fold change to isotype ctrl” value came out at 9.8 fold.
The matching figures for B2: 81.1% and 10.7 fold.
As to B3, the “% positive cells” value stood at 85.2% and the “MFI fold change to isotype ctrl” value stood at 11.9 fold.
The matching figures for B4: 77% and 9.2 fold.

For another assay, the target named is T1, human CCR8. Put plainly: flow cytometry, inhibition of hCCL1-AF647 (10 nM) binding to hCCR8-CHO cells. The essentials: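 hCCR8-transfected CHO cells preincubated 30 min at 4 °C with anti-CCR8 mAb (8 concentrations, top 10 μg/mL, 1/3 dilutions), washed, then exposed to labelled CCL1. Bound CCL1 quantified by flow cytometry; IC₅₀ of binding blockade from sigmoidal variable-slope fit.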
In the case of B1, the IC50 is 1.29 µg/mL and 8.62 nM.
Turning to B2, the IC50 was 1.3 µg/mL and 8.71 nM.
For the molecule B3, the IC50 was 15.2 nM and 2.65 µg/mL.
B4: the IC50 was 0.22 µg/mL and 1.46 nM.

Values taken from patent US20260132208A1 (DOMAIN THERAPEUTICS, published 2026).
